Positions count from the first letter of the chain named.
Columns and labels:
[1] = target: T1, RXFP1 G45W46-AA (Homo sapiens, UniProt Q9HBX9, G67A/W68A); assay: Eu-H2 relaxin saturation binding assay, transfected HEK293T cells; conditions: construct G45W46-AA, maximum H2 concentration 15 nM
T1 construct: transiently transfected human embryonic kidney (HEK) 293T cells expressing full-length RXFP1 and mutants; expressed in transfected cells; host or cells: HEK293T
T1 sequence (Q9HBX9 23-757 G67A/W68A limits assumed): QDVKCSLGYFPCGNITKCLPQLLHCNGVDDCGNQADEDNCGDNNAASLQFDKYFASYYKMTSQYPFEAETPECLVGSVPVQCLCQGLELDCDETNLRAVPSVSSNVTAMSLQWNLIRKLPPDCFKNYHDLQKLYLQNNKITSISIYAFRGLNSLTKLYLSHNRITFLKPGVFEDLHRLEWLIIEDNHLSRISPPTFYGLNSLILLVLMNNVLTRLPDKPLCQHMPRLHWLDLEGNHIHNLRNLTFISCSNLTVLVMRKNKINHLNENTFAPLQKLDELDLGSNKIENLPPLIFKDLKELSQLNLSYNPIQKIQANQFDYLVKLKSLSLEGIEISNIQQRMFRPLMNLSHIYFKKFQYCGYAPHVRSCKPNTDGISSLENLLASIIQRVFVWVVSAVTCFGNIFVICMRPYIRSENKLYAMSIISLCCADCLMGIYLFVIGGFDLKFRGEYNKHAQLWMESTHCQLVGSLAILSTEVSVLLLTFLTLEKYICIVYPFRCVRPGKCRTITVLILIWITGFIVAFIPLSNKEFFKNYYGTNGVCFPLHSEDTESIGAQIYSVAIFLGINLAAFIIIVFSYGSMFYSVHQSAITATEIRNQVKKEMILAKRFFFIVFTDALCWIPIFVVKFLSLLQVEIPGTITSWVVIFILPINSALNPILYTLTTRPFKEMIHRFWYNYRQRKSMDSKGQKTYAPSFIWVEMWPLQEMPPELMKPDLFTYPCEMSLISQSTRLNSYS

[2] = target: T2, RXFP1(1–72) (Homo sapiens, UniProt Q9HBX9); assay: NMR competition titration against the RXFP1(1–72)/Mn2+-DTPA-(A)-H2 complex; type: binding; conditions: 50 μM peptide added to 50 μM 15N-RXFP1(1–72) with 0.2 μM Mn2+-DTPA-(A)-H2; pH 6.8, 25 °C
T2 construct: GB1 (N, cleaved yes); made in house; host or cells: E. coli BL21 (DE3) trxB
T2 sequence (Q9HBX9 23-94 limits assumed): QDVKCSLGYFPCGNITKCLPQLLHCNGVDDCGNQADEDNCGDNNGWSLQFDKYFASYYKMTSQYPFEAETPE
Procedure: All RXFP1(1–72) protein samples for nuclear magnetic resonance (NMR) experiments were prepared from lyophilized protein in 50 mM imidazole, with 10 mM CaCl2 at pH 6.8. Recombinant human gene-2 H2 relaxin peptide was kindly provided by Corthera. EL1^(475–486)/EL2-GB1 samples were prepared as described above. Titrant and titrand were dialyzed in the same buffer in the same vessel. All NMR experiments were routinely collected at 25 °C on a 700-MHz Bruker Avance HDIII spectrometer equipped with triple resonance cryoprobe. […] Backbone assignments were made from 3D HNCACB, HNCOCACB, HNCO and HNCACO experiments. Spectra were processed using NMRPipe (ref. [43]) and typically Fourier-transformed after applying Lorentz-to-Gauss window functions in the direct dimension and cosine bells in the indirect dimensions. NMR data were analysed using SPARKY (Goddard, T.D. and Kneller, D.G., University of California, San Francisco). Assignments of the mutant RXFP1(1–72) proteins were determined from the assignments of wild-type RXFP1(1–72).
^15N{^1H}-NOE experiments[45] (2,048 × 256 data points) were acquired with a saturation pulse of 4 s and an additional relaxation delay of 5 s. Sample conditions were 150 μM RXFP(1–72) or mutants either without or with 450 μM H2 relaxin. Binding to Mn^2+-DTPA-(A)-H2 to RXFP1(1–72) and mutants was monitored by recording 2D ^1H-^15N HSQC (2,048 × 256 data points) for 0.2 μM Mn^2+-DTPA-(A)-H2 against 50 μM RXFP1(1–72). H2 relaxin and its truncates such as A-chain (9–24), H2/I5 chimera and Phe23Ala A-chain mutant H2 were titrated into a complex of 50 μM RXFP1(1–72) and 0.2 μM Mn^2+-DTPA-(A)-H2 with increasing concentrations ranging from 5 to 50 μM.

[3] = target: T3, RXFP1 F54A/Y58A (Homo sapiens, UniProt Q9HBX9, F76A/Y80A); assay: Eu-H2 relaxin saturation binding assay, transfected HEK293T cells; conditions: F54A/Y58A RXFP1 versus wild-type RXFP1
T3 construct: cells expressing full-length RXFP1 and mutants; expressed in transfected cells; host or cells: HEK293T
T3 sequence (Q9HBX9 23-757 F76A/Y80A limits assumed): T1 sequence (Q9HBX9 23-757 G67A/W68A limits assumed) with A45G, A46W, F54A, Y58A

H2 relaxin: two-chain 6-kDa peptide hormone structurally related to insulin; recombinant human gene-2 H2 relaxin provided by Corthera
Kd [1]: > 20 nM
competition with Mn2+-DTPA-(A)-H2 for RXFP1(1–72) (peak intensities, chemical shifts) [2]: reappearance of the broadened peaks
loss in H2 relaxin binding [3]: tenfold

— publication PMC4837482, “The complex binding mode of the peptide hormone H2 relaxin to its receptor RXFP1” (Nature Communications, 2016)
